# Source: the supplement of paper PMC10126150
# ± gives the standard deviation of the averaged measurements.
# System: ATP
# Test: switch fluorescence ratio, 500 uM ATP over buffer (Cy3 cluster intensity, sum of 5 cycles each) (fold (ratio)); higher = stronger signal-on switching upon ATP binding; sequences stand for … in TCGTCGGCAGCGTCAGATGTGTATAAGAGACAGTTTTTTTTTTTTTTTTTTTTTTTTT…TC
# Settings: aptamer strand: ATP DNA aptamer (quencher-CACCTGGGGGAGTATTGCGGAGGAAGG + anchor), 100 nM annealed; ATP concentration: 500 uM
# How it was run: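 The quencher-labelled ATP aptamer, at 100 nM, was annealed to Cy3-labelled switching-strand clusters on a modified Illumina MiSeq flow-cell. The clusters were imaged in selection buffer, then after 15 min with 500 uM ATP at 22 °C, and this buffer/ATP cycle ran five times with NaOH stripping and re-annealing between runs. Per-cluster fluorescence ratios, summed target-cycle over summed buffer-cycle Cy3 intensity, were averaged per switch-domain sequence. Clusters outside 100-1000 RFU were excluded.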
# 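Further: ATP exposure 15 min at 22 °C before imaging.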
row,Sequence,switch fluorescence ratio
1,GAGTGGACGG,0.998 ± 0.018
2,GAGTGGCACC,1.04 ± 0.042
3,GAGTGGCTGG,0.979 ± 0.014
4,GAGTGGGCTC,0.9879 ± 0.0045
5,GAGTGGGGGA,0.99 ± 0.023
6,GAGTGGGTGG,0.99 ± 0.037
7,GAGTGGTACC,1.01 ± 0.025
8,GAGTGGTGTG,0.979 ± 0.035
9,GAGTGTGTGT,1.006 ± 0.0053
10,GAGTGTTCAG,0.997 ± 0.018
11,GAGTGTTGGG,1.004 ± 0.0052
12,GAGTTAAGAC,0.991 ± 0.049
13,GAGTTCCTGT,1.01 ± 0.014
14,GAGTTGGGAG,1.01 ± 0.032
15,GAGTTGGTAG,0.969 ± 0.021
16,GAGTTGGTCT,1 ± 0.027
17,GAGTTTAATT,0.999 ± 0.038
18,GAGTTTAGGT,1.02 ± 0.011
19,GAGTTTGAGT,0.982 ± 0.035
20,GAGTTTGGGT,0.985 ± 0.032
21,GAGTTTTCTA,0.9987 ± 0.0081
22,GAGTTTTTTG,1.03 ± 0.039
23,GATAAAAGCG,0.994 ± 0.0015
24,GATAAATAAA,1 ± 0.02
25,GATAAATGGG,0.994 ± 0.024

row,Sequence,switch fluorescence ratio
1,GATAAATGTT,0.985 ± 0.01
2,GATAAGATGG,0.979 ± 0.034
3,GATAAGGAAG,1.02 ± 0.011
4,GATACAGCTA,1.03 ± 0.042
5,GATACAGTAA,1.06 ± 0.017
6,GATACATGGG,0.985 ± 0.038
7,GATACCGGGT,1.01 ± 0.022
8,GATACCTTTG,1.72 ± 1
9,GATACGGACA,1.42 ± 0.019
10,GATACGTGGG,0.9702 ± 0.0065
11,GATACTTTTT,1.01 ± 0.029
12,GATAGAAGTA,0.9733 ± 0.0057
13,GATAGACTTT,1.02 ± 0.048
14,GATAGATGTT,0.979 ± 0.02
15,GATAGGGCAT,1.02 ± 0.012
16,GATAGGGGAA,0.978 ± 0.022
17,GATAGGGGAC,1.03 ± 0.039
18,GATAGGGGTT,0.975 ± 0.022
19,GATAGGTG,1.21 ± 0.1
20,GATAGTAAGT,0.998 ± 0.077
21,GATAGTGATA,1.01 ± 0.019
22,GATAGTTTGT,1 ± 0.011
23,GATATAGGCG,1.05 ± 0.047
24,GATATAGTGT,0.991 ± 0.02
25,GATATATATG,1.01 ± 0.015

row,Sequence,switch fluorescence ratio
1,GATATATGCT,1 ± 0.013
2,GATATATTAT,1.017 ± 0.0038
3,GATATATTTT,0.976 ± 0.01
4,GATATCAGGG,0.978 ± 0.037
5,GATATCCATG,0.972 ± 0.014
6,GATATGGGGG,1.01 ± 0.03
7,GATATTAGAT,1.02 ± 0.046
8,GATATTATTT,0.998 ± 0.024
9,GATATTGCGA,1.02 ± 0.035
10,GATATTGTTA,1 ± 0.029
11,GATATTTCGG,1.011 ± 0.0024
12,GATATTTTAA,0.992 ± 0.037
13,GATCAGTGGC,1.05 ± 0.071
14,GATCATGCCT,1.048 ± 0.008
15,GATCATTTGT,0.9797 ± 0.0018
16,GATCCACGGT,1.03 ± 0.027
17,GATCGACTGG,1.029 ± 0.0075
18,GATCGAGGGG,1.05 ± 0.1
19,GATCGCAGCG,0.986 ± 0.032
20,GATCGCGTAT,1.02 ± 0.0026
21,GATCGGGGAC,1.03 ± 0.027
22,GATCGGGGGA,1.02 ± 0.015
23,GATCGGTAAT,1.04 ± 0.028
24,GATCTCAGGG,1 ± 0.034
25,GATCTGCTTC,1.02 ± 0.026

row,Sequence,switch fluorescence ratio
1,GATCTTCGGC,0.9541 ± 0.0027
2,GATCTTTGTT,1.009 ± 0.0093
3,GATCTTTTCG,1.01 ± 0.037
4,GATGAAAAGT,0.976 ± 0.015
5,GATGAAAGAT,1.003 ± 0.0085
6,GATGAAGACT,1 ± 0.067
7,GATGACCTTT,1.07 ± 0.14
8,GATGACTTTT,1 ± 0.023
9,GATGAGGTTC,0.967 ± 0.053
10,GATGATGAGG,0.9961 ± 0.0073
11,GATGATGGCG,1.05 ± 0.073
12,GATGATGTTT,0.973 ± 0.039
13,GATGATTCTG,1.001 ± 0.0056
14,GATGCAGGGC,1.12 ± 0.081
15,GATGCATGTT,0.9947 ± 0.0021
16,GATGCCGGCA,0.98 ± 0.065
17,GATGCGCCGG,1.03 ± 0.034
18,GATGCGGGGA,1.01 ± 0.018
19,GATGCGTACG,1 ± 0.055
20,GATGCTATTT,1.004 ± 0.0087
21,GATGGAACAC,0.994 ± 0.017
22,GATGGAGGAG,1.03 ± 0.027
23,GATGGAGGAT,1.01 ± 0.021
24,GATGGAGGGA,1.01 ± 0.028
25,GATGGAGGTT,0.996 ± 0.055

row,Sequence,switch fluorescence ratio
1,GATGGATGAA,1.016 ± 0.0033
2,GATGGGAGGT,1.008 ± 0.0046
3,GATGGGATGG,0.993 ± 0.039
4,GATGGGCCGG,1 ± 0.039
5,GATGGGGAGT,0.9715 ± 0.0057
6,GATGGGGGCA,1 ± 0.086
7,GATGGGGGGT,1 ± 0.022
8,GATGGGGGTG,1.02 ± 0.053
9,GATGGGGTTC,1.01 ± 0.018
10,GATGGGTATA,1.0016 ± 0.00067
11,GATGGGTATG,0.995 ± 0.01
12,GATGGGTG,1.03 ± 0.082
13,GATGGTTAGA,0.998 ± 0.036
14,GATGGTTGAA,0.984 ± 0.021
15,GATGTAAAGC,1.02 ± 0.06
16,GATGTAAAGG,0.9891 ± 0.006
17,GATGTAACAA,0.998 ± 0.035
18,GATGTAATGT,1.0081 ± 0.00064
19,GATGTACAGA,1.13 ± 0.019
20,GATGTAGGTA,0.983 ± 0.038
21,GATGTATTAT,1.008 ± 0.0043
22,GATGTATTTT,0.9823 ± 0.004
23,GATGTCCACG,0.9874 ± 0.0051
24,GATGTCGGTC,0.9825 ± 0.0039
25,GATGTGAAAG,0.9638 ± 0.003

row,Sequence,switch fluorescence ratio
1,GATGTGATTA,0.982 ± 0.039
2,GATGTGCGTC,1.01 ± 0.023
3,GATGTTAAAC,1.06 ± 0.02
4,GATGTTCGAG,0.991 ± 0.011
5,GATGTTGCCG,1.05 ± 0.057
6,GATGTTGTGT,0.9802 ± 0.0091
7,GATGTTGTTT,1.03 ± 0.056
8,GATGTTTACT,1.0047 ± 0.00016
9,GATGTTTATG,0.975 ± 0.036
10,GATGTTTGTG,0.992 ± 0.045
11,GATGTTTTGG,0.986 ± 0.033
12,GATGTTTTTT,1.07 ± 0.14
13,GATTAAAAGT,0.969 ± 0.011
14,GATTAAACGG,1.04 ± 0.04
15,GATTAAAGCT,1.11 ± 0.039
16,GATTAAAGTT,1.02 ± 0.033
17,GATTAAATGT,0.992 ± 0.014
18,GATTAACCTA,1.013 ± 0.003
19,GATTAAGAGG,1.01 ± 0.039
20,GATTAAGGGC,1.0033 ± 6.6e-05
21,GATTAATTAC,1.06 ± 0.018
22,GATTACTCTG,1.03 ± 0.026
23,GATTAGACAC,1.013 ± 0.01
24,GATTAGCCGG,0.99 ± 0.015
25,GATTATATAG,0.957 ± 0.019

row,Sequence,switch fluorescence ratio
1,GATTATGATT,0.971 ± 0.013
2,GATTATGCGG,0.9849 ± 0.006
3,GATTCAAGAT,0.993 ± 0.03
4,GATTCATGGG,1.01 ± 0.0043
5,GATTCCATAG,1.06 ± 0.034
6,GATTCCGGAC,1.032 ± 0.0054
7,GATTCCGTTG,1.04 ± 0.016
8,GATTCGTATT,0.9757 ± 0.0047
9,GATTCTAGGG,0.9918 ± 0.0017
10,GATTCTGATT,0.9756 ± 0.0036
11,GATTGATGTT,1.013 ± 0.009
12,GATTGCAGTG,0.9786 ± 0.002
13,GATTGCATCG,0.9937 ± 0.0013
14,GATTGGAACG,0.976 ± 0.013
15,GATTGGACTA,1 ± 0.035
16,GATTGGGGAA,1.02 ± 0.013
17,GATTGGGGTA,0.978 ± 0.038
18,GATTGGTCTT,0.976 ± 0.03
19,GATTGTATCA,0.99 ± 0.014
20,GATTGTCTTA,0.979 ± 0.016
21,GATTGTGTTA,1.01 ± 0.043
22,GATTGTTGGG,0.984 ± 0.02
23,GATTGTTGTA,0.979 ± 0.014
24,GATTTAAACA,1.02 ± 0.029
25,GATTTAAGAG,0.988 ± 0.029

row,Sequence,switch fluorescence ratio
1,GATTTAAGGG,0.993 ± 0.018
2,GATTTAAGTG,1.018 ± 0.0065
3,GATTTAATTG,1.03 ± 0.09
4,GATTTAGGGG,0.961 ± 0.042
5,GATTTAGGTA,0.968 ± 0.027
6,GATTTATTGG,0.983 ± 0.032
7,GATTTATTTA,0.993 ± 0.015
8,GATTTCCCGC,1.26 ± 0.043
9,GATTTCGGCG,0.97 ± 0.03
10,GATTTGAGGC,0.987 ± 0.018
11,GATTTGATGA,0.9959 ± 0.002
12,GATTTGGACG,1.01 ± 0.028
13,GATTTGGAGG,0.97361 ± 7.9e-05
14,GATTTGGGCG,1.038 ± 0.0054
15,GATTTGGGGT,1 ± 0.033
16,GATTTGTAGG,1.01 ± 0.0069
17,GATTTTAATA,1.02 ± 0.016
18,GATTTTAGAC,0.995 ± 0.015
19,GATTTTCGCG,1.02 ± 0.037
20,GATTTTCGCT,0.971 ± 0.022
21,GATTTTCTTG,1.03 ± 0.017
22,GATTTTGGGG,1.01 ± 0.029
23,GATTTTGT,0.969 ± 0.037
24,GATTTTGTGC,1 ± 0.054
25,GATTTTTAGT,1.002 ± 0.0016
